Assay results from publication PMC3500403 (Developmental cell, 2012).

Target: taxol stabilized microtubules (UniProt Q6B856 1-445)
Assay: co-sedimentation

B1: C. elegans SKA-1 microtubule binding domain (residues 118-243) (domain or fragment, UniProt Q9XWS0 118-243, looked up)
chain: NDIRIVPQITDEEFKTIPKYQLGRLTLEMMNEIVSKMDDFLMKKSKILGKTNKQLTRSDREVLDNWRELEMKARKRLPTTLFFIETDIRPMLQDRLRPSFAKAIPCLRHIRRIREERCGPLTFYYP
Question: For B1, which Kd is on record?
Answer: 6.3 µM
